Measurements taken from PMC6951436 (Cell reports, 2019).
Where “and” joins values, the source holds several entries; their conditions need not be identical. Identical values can stand only once.

B1: pyruvate kinase liver isoform phosphorylated at S12 (PKL pS12) (enzyme)
chain: not shown
modifications: phosphoserine at 12 (71.2% phosphorylated)
B2: pyruvate kinase liver isoform phosphorylated at S113 (PKL pS113) (enzyme)
chain: not shown
modifications: phosphoserine at 113 (82.8% phosphorylated)

Target: the molecule itself
Test: native gel or EMSA + SEC

| Protein | stoichiometry N |
| --- | --- |
| B1 | 4 and 2 |
| B2 | 4 and 2 |
